Reference: the RNAGym collection of RNA variant scans (doi:10.7554/elife.80360)

B1: HDV Ribozyme (parent)
chain: GGCCGGCAUGGUCCCAGCCUCCUCGCUGGCGCCGGCUGGGCAACAUUCCGAGGGGACCGUCCCCUCGGUAAUGGCGAAUGGGACCCA

Variants of: B1
Assay: self-cleavage, relative activity (ratio to wild type); higher = more cleavage; co-transcriptional

Variant | self-cleavage
C61G G82C | 0.233
A45C A71U | 1.09
G6C C36U | 0.175
C32U A56C | 1.12
G34A G67U | 0.0811
C18A G59U | 0.113
C44G | 0.753
G17U C57U | 0.415
U72A C85A | 0.399
G38C U65A | 0.341
C36G G82C | 0.141
C21G C22G | 0
C18U G25C | 0.201
G54A G76U | 0.799
A8G A43G | 0.415
G2C U27G | 0.0437
A51U C57A | 0.814
G6C G10U | 0.0755
A42C G67C | 0.17
A70C G73C | 0.514
G5A U46C | 0.185
A43G A78U | 0.178
G81C C85A | 0.213
G54C U69A | 0.945

Variant | self-cleavage
U46G A83C | 0.293
G17A A87C | 0.716
G38C C64G | 0.415
U12G A43C | 0.431
U47A G80U | 0.172
C4G A78G | 0.0923
G1U G74C | 0.262
C41G C63G | 0.517
C24A G39A | 0.0779
C4U G74C | 0.0791
G1U U9G | 0.399
C21A C64U | 0.0852
G67A A87G | 0.936
C44A C57A | 0.752
G31A A56G | 0.369
U12G C61U | 0.831
U72A G73A | 0.617
C36A A70C | 0.128
C30U U60A | 0.69
U9C U37C | 0.978
G10U G35U | 0.337
G50A C64A | 0.479
G73C A83G | 0.17
G6A C33G | 0.0536

Variant | self-cleavage
C19U G81C | 0.101
C58G A71U | 0.779
C41G C49A | 0.489
A83U A87G | 0.531
C49G U69G | 0.831
G67U U69G | 1.03
C33A C85U | 0.277
C18G A87C | 0.104
G40A G81U | 0.342
G67U G80A | 0.355
G31A C41A | 0.273
C15G C86A | 0.712
C33U A70U | 0.755
U46A U79G | 0.322
A16U A56G | 0.831
G25A U69C | 0.302
G25U U27C | 0.107
U12A G25U | 0.133
G35U | 0.454
U46A C85G | 0.575
C14A U79G | 0.575
A78G A83G | 0.445
C30A C48U | 0.533
G11A G73C | 0.0252

Variant | self-cleavage
U20C A87C | 0.254
U27C A71C | 0.458
C44G G80C | 0.0405
G35A G54U | 0.743
G17U G54A | 0.326
G67C G73C | 0.212
G17U A77C | 0.166
G6C G52A | 0.369
C44A C63G | 0.831
C3A G10C | 0.504
U37C C84G | 0.587
C21U C30U | 0.0755
G81C A87G | 0.306
C24U C63U | 0.726
A8C C26A | 0.629
C13U U69A | 0.8
C24G C66U | 0.166
G35U G50A | 0.472
U9A C30U | 0.776
G38U U46G | 0.0755
C24U G82U | 0.0692
A71G U79G | 0.256
C15U G74A | 0.383
G40U C86A | 0.682

Variant | self-cleavage
C21U G54A | 0.159
C36G G81U | 0.114
C18G C32U | 0.172
C22G G38A | 0.0231
G55C A78C | 0.111
G31U C49A | 0.451
U69G C75U | 0.0615
C22G G31U | 0.0361
U20C G35C | 0
G38C G73U | 0.13
C22A G68U | 0.212
G38U U69A | 0.256
G38C A42U | 0.208
G1C A71G | 0
G40U G55A | 0.722
C26A A71U | 0.785
G31A A45U | 0.185
G31C G67U | 0.402
G1C G50C | 0.342
C19U G53A | 0.229
C26G G29U | 0.119
C3U A77C | 0.0639
C63A U69A | 0.965
G10U U20G | 0.113

Variant | self-cleavage
G5U A8U | 0.208
C3U G59A | 0.925
G11A U72C | 0.121
G11U U27C | 0.388
A16C U20C | 0.277
G38A G82U | 0.0405
C7G U23A | 0.227
C75G C85A | 0.208
C21A U47A | 0.0462
C18A U65G | 0.19
C66U G76A | 0.86
A43U A87G | 0.274
A43U C49A | 0.755
G5C A51U | 0.298
G17A A42U | 0.119
G10U A42G | 0.325
U9A C21G | 0.0462
U20A A87C | 0.0631
G2C G74A | 0.113
G2U G6A | 0.0355
G38A G76C | 0.0767
G40C C63A | 0.475
G29U G39U | 0.111
G76U G80A | 0.595

Variant | self-cleavage
C36U G52C | 0.779
A45C C85U | 0.437
G10A G68A | 0.604
G50A C62U | 0.926
G29C A43U | 0.0519
U46G G80U | 0.202
G5A C30U | 0.0692
G59U C84U | 0.865
G11A G28A | 0.0268
U27G C63A | 1.07
C21U G80C | 0.151
U23G U37A | 0.0678
U20A A78C | 0.107
G2C G52A | 0.113
C3A G17U | 0.0665
U9C C44U | 0.739
U60A A78U | 0.249
G5C U65G | 0.0978
C66A G74U | 0.739
G59A U60C | 1.12
C7A A42U | 0.108
A51G G67A | 0.831
C3A G53U | 0.527
